System: O=[N+]([O-])c1ccc(OP(=O)(O)O)cc1
Test: Alkaline phosphatase kinetic constants (substrate hydrolysis)
Format: biochemical, Escherichia coli
Settings: other: Table 1; substrate not named, e.g. p-nitrophenyl phosphate
Description: The analyses for specific activity and temperature stability were performed on highly purified protein material. In brief, the purification process involved the release of the periplasmic protein by the formation of spheroplasts, ammonium sulphate precipitation and chromatofocusing chromatography. […] Temperature stability was measured by monitoring the decay of enzyme activity at different temperatures.

Question: With “E. coli alkaline phosphatase variant pMA116, Lys^328 > Arg / Val^99 > Ala (Escherichia coli K-12; K350R/V121A)” as the substance, how does the Km read?
Answer: The Km was 74 µM.
